Test results published in publication PMC9768791 (2022).

Key:
Test in all cases: activation reporter or marker
[1] = target: T1, MED12Lp.T462K peptide on HLA-C*07:02 (human)
T1 peptide: SRVLHKLEV

[2] = target: T2, MAN2A2p.R877W peptide on HLA-C*04:01 (human)
T2 peptide: IWDYVNKELA

[3] = target: T3, KBTBD3p.T293A peptide on HLA-B*35:01 (human)
T3 peptide: RPSTAEKYIF

[4] = target: T4, PRCCp.V145L peptide on HLA-C*07:01 (human)
T4 peptide: KRKEPLKI

[5] = target: T5, CDADC1p.R148Q peptide on HLA-A*24:02 (human)
T5 peptide: AGVNQISYW

[6] = target: T6, FCGRTp.A241T peptide on HLA-C*06:02 (human)
T6 peptide: LRFLRNGLT

[7] = target: T7, RASA3p.A654V peptide on HLA-A*02:01 (human)
T7 peptide: FQVIQPERV

[8] = target: T8, SDK1p.S1290L peptide on HLA-A*02:01 (human)
T8 peptide: SLTQILLTWT

[9] = target: T9, BRPF1p.L634F peptide on HLA-A*24:02 (human)
T9 peptide: EMQLTPFFI

[10] = target: T10, WDFY3p.L512H peptide on HLA-A*11:01 (human)
T10 peptide: VMVNHLHKY

[11] = target: T11, PAPSS1p.Q144H peptide on HLA-C*07:02 (human)
T11 peptide: ARHIHEGASL

[12] = target: T12, USP34p.S2706F peptide on HLA-C*07:02 (human)
T12 peptide: FRSTRFLHI

[13] = target: T13, ACEp.V535G peptide on HLA-B*57:01 (human)
T13 peptide: VSFGLQFQF

[14] = target: T14, ETNK1p.Q233L peptide on HLA-C*07:01 (human)
T14 peptide: FRLIARLL

B1: TCR915 (TCR, V domains shown)
Valpha: AQKVTQAQTEISVVEKEDVTLDCVYETRDTTYYLFWYKQPPSGELVFLIRRNSFDEQNEISGRYSWNFQKSTSSFNFTITASQVVDSAVYFCALSDHNTDKLIFGTGTRLQVFP
Vbeta: NAGVTQTPKFRILKIGQSMTLQCTQDMNHNYMYWYRQDPGMGLKLIYYSVGAGITDKGEVPNGYNVSRSTTEDFPLRLELAAPSQTSVYFCASISDSYNEQFFGPGTRLTVL
- binding result [1]: recognises

B2: TCR721 (TCR, V domains shown)
Valpha: AQKVTQAQTEISVVEKEDVTLDCVYETRDTTYYLFWYKQPPSGELVFLIRRNSFDEQNEISGRYSWNFQKSTSSFNFTITASQVVDSAVYFCALSEATGFGNEKLTFGTGTRLTIIP
Vbeta: DAGITQSPRHKVTETGTPVTLRCHQTENHRYMYWYRQDPGHGLRLIHYSYGVKDTDKGEVSDGYSVSRSKTEDFLLTLESATSSQTSVYFCAISDPRDSYEQYFGPGTRLTVT
- binding result [2]: recognises

B3: TCR1364 (TCR, V domains shown)
Valpha: GQNIDQPTEMTATEGAIVQINCTYQTSGFNGLFWYQQHAGEAPTFLSYNVLDGLEEKGRFSSFLSRSKGYSYLLLKELQMKDSASYLCAVKGDYKLSFGAGTTVTVRA
Vbeta: DTGVSQNPRHKITKRGQNVTFRCDPISEHNRLYWYRQTLGQGPEFLTYFQNEAQLEKSRLLSDRFSAERPKGSFSTLEIQRTEQGDSAMYLCASSDRSYNEQFFGPGTRLTVL
- binding result [3]: recognises

B4: TCR775 (TCR, V domains shown)
Valpha: GQNIDQPTEMTATEGAIVQINCTYQTSGFNGLFWYQQHAGEAPTFLSYNVLDGLEEKGRFSSFLSRSKGYSYLLLKELQMKDSASYLCAAHSGGYQKVTFGTGTKLQVIP
Vbeta: EPEVTQTPSHQVTQMGQEVILRCVPISNHLYFYWYRQILGQKVEFLVSFYNNEISEKSEIFDDQFSVERPDGSNFTLKIRSTKLEDSAMYFCASSEDEQEYSYEQYFGPGTRLTVT
- binding result [4]: recognises

B5: TCR1057 (TCR, V domains shown)
Valpha: GENVEQHPSTLSVQEGDSAVIKCTYSDSASNYFPWYKQELGKRPQLIIDIRSNVGEKKDQRIAVTLNKTAKHFSLHITETQPEDSAVYFCAASRGPAGGTSYGKLTFGQGTILTVHP
Vbeta: DTEVTQTPKHLVMGMTNKKSLKCEQHMGHRAMYWYKQKAKKPPELMFVYSYEKLSINESVPSRFSPECPNSSLLNLHLHALQPEDSALYLCASSQDAWWLSQPQHFGDGTRLSIL
- binding result [5]: recognises

B6: TCR1059 (TCR, V domains shown)
Valpha: SQQGEEDPQALSIQEGENATMNCSYKTSINNLQWYRQNSGRGLVHLILIRSNEREKHSGRLRVTLDTSKKSSSLLITASRAADTASYFCATDEGNFVFGPGTRLSVLP
Vbeta: NAGVTQTPKFQVLKTGQSMTLQCAQDMNHEYMSWYRQDPGMGLRLIHYSVGAGITDQGEVPNGYNVSRSTTEDFPLRLLSAAPSQTSVYFCASSPGQRETQYFGPGTRLLVL
- binding result [6]: recognises

B7: TCR1312 (TCR, V domains shown)
Valpha: QKEVEQNSGPLSVPEGAIASLNCTYSDRGSQSFFWYRQYSGKSPELIMFIYSNGDKEDGRFTAQLNKASQYVSLLIRDSQPSDSATYLCAVNRAGGSYIPTFGRGTSLIVHP
Vbeta: DAGVIQSPRHEVTEMGQEVTLRCKPISGHDYLFWYRQTMMRGLELLIYFNNNVPIDDSGMPEDRFSAKMPNASFSTLKIQPSEPRDSAVYFCASSQGQGVLGMKKLFFGSGTQLSVL
- binding result [7]: recognises

B8: TCR1036 (TCR, V domains shown)
Valpha: RKEVEQDPGPFNVPEGATVAFNCTYSNSASQSFFWYRQDCRKEPKLLMSVYSSGNEDGRFTAQLNRASQYISLLIRDSKLSDSATYLCVVNMYNQGGKLIFGQGTELSVKP
Vbeta: NAGVTQTPKFQVLKTGQSMTLQCAQDMNHEYMSWYRQDPGMGLRLIHYSVGAGITDQGEVPNGYNVSRSTTEDFPLRLLSAAPSQTSVYFCASSYSGPNYEQYFGPGTRLTVT
- binding result [8]: recognises

B9: TCR955 (TCR, V domains shown)
Valpha: AQTVTQSQPEMSVQEAETVTLSCTYDTSESDYYLFWYKQPPSRQMILVIRQEAYKQQNATENRFSVNFQKAAKSFSLKISDSQLGDAAMYFCAYRRRNSGYALNFGKGTSLLVTP
Vbeta: DAGVTQSPTHLIKTRGQQVTLRCSPKSGHDTVSWYQQALGQGPQFIFQYYEEEERQRGNFPDRFSGHQFPNYSSELNVNALLLGDSALYLCASSLRVWSSYEQYFGPGTRLTVT
- binding result [9]: recognises

B10: TCR720 (TCR, V domains shown)
Valpha: LAKTTQPISMDSYEGQEVNITCSHNNIATNDYITWYQQFPSQGPRFIIQGYKTKVTNEVASLFIPADRKSSTLSLPRVSLSDTAVYYCLVIEAGNNRKLIWGLGTSLAVNP
Vbeta: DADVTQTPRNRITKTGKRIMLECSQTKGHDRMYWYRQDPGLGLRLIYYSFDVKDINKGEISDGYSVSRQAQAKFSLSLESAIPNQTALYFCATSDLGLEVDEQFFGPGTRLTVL
- binding result [10]: recognises

B11: TCR952 (TCR, V domains shown)
Valpha: SQQGEEDPQALSIQEGENATMNCSYKTSINNLQWYRQNSGRGLVHLILIRSNEREKHSGRLRVTLDTSKKSSSLLITASRAADTASYFCATDEVGDMRFGAGTRLTVKP
Vbeta: EPEVTQTPSHQVTQMGQEVILRCVPISNHLYFYWYRQILGQKVEFLVSFYNNEISEKSEIFDDQFSVERPDGSNFTLKIRSTKLEDSAMYFCAISGSLYNEQFFGPGTRLTVL
- binding result [11]: recognises

B12: TCR903 (TCR, V domains shown)
Valpha: AQKVTQAQTEISVVEKEDVTLDCVYETRDTTYYLFWYKQPPSGELVFLIRRNSFDEQNEISGRYSWNFQKSTSSFNFTITASQVVDSAVYFCALSEETDRGSTLGRLYFGRGTQLTVWP
Vbeta: DTAVSQTPKYLVTQMGNDKSIKCEQNLGHDTMYWYKQDSKKFLKIMFSYNNKELIINETVPNRFSPKSPDKAHLNLHINSLELGDSAVYFCASSQDGGFEQFFGPGTRLTVL
- binding result [12]: recognises

B13: TCR901 (TCR, V domains shown)
Valpha: QKEVEQDPGPLSVPEGAIVSLNCTYSNSAFQYFMWYRQYSRKGPELLMYTYSSGNKEDGRFTAQVDKSSKYISLFIRDSQPSDSATYLCAMTRGGGGNKLTFGTGTQLKVEL
Vbeta: NAGVTQTPKFRVLKTGQSMTLLCAQDMNHEYMYWYRQDPGMGLRLIHYSVGEGTTAKGEVPDGYNVSRLKKQNFLLGLESAAPSQTSVYFCASSYGGPEQFFGPGTRLTVL
- binding result [13]: recognises

B14: TCR1285 (TCR, V domains shown)
Valpha: DAKTTQPPSMDCAEGRAANLPCNHSTISGNEYVYWYRQIHSQGPQYIIHGLKNNETNEMASLIITEDRKSSTLILPHATLRDTAVYYCIVRLAPYSGNTPLVFGKGTRLSVIA
Vbeta: DAGVTQSPTHLIKTRGQQVTLRCSPKSGHDTVSWYQQALGQGPQFIFQYYEEEERQRGNFPDRFSGHQFPNYSSELNVNALLLGDSALYLCASISGFMGLMNTEAFFGQGTRLTVV
- binding result [14]: recognises
